Data as given in US20250215109A1.

Biological target: HER2 on human tumor cells (human) (UniProt P04626)
Assay: Her2 receptor occupancy on SK-BR-3 cells, FACS, competitor biotin-labeled parental anti-HER2 antibody

Max RO %: 0%
Substance: Magrolimab (antibody)
